Biological target: 70 kDa N-terminal fragment of fibronectin

B1: Recombinant human thioredoxin produced in E. coli (protein)
chain: MVKQIESKTAFQEALDAAGDKLVVVDFSATWCGPCKMIKPFFHSLSEKYSNVIFLEVDVDDCQDVASECEVKCMPTFQFFKKGQKVGEFSGANKEKLEATINELV
- thioredoxin-mediated reduction of the fibronectin fragment (free thiols labelled with MPB, SDS-PAGE, streptavidin peroxidase blot): thioredoxin reduced one or more protein disulfide bonds in the 70 kDa N-terminal fragment of fibronectin
